PMC2975895

Key:
[1] = target: AxxA-SurR (SurR C23A C26A variant) (Pyrococcus furiosus); test: crystal structure
[2] = target: AxxA-SurR (SurR C23A C26A variant) (Pyrococcus furiosus); test: SEC
[3] = target: SurR oxidized with diamide or colloidal S^0 (Pyrococcus furiosus); test: SEC

stoichiometry N [1]	stoichiometry N [2]	stoichiometry N [3]	Substance
2	2	–	AxxA-SurR (SurR C23A C26A variant) (natural protein)
–	–	2	SurR oxidized with diamide or colloidal S^0 (natural protein)
